In article PMC9152131:

Target: RFP-Hrs (UniProt O14964)
Sequence of UniProt O14964 (O14964 whole entry): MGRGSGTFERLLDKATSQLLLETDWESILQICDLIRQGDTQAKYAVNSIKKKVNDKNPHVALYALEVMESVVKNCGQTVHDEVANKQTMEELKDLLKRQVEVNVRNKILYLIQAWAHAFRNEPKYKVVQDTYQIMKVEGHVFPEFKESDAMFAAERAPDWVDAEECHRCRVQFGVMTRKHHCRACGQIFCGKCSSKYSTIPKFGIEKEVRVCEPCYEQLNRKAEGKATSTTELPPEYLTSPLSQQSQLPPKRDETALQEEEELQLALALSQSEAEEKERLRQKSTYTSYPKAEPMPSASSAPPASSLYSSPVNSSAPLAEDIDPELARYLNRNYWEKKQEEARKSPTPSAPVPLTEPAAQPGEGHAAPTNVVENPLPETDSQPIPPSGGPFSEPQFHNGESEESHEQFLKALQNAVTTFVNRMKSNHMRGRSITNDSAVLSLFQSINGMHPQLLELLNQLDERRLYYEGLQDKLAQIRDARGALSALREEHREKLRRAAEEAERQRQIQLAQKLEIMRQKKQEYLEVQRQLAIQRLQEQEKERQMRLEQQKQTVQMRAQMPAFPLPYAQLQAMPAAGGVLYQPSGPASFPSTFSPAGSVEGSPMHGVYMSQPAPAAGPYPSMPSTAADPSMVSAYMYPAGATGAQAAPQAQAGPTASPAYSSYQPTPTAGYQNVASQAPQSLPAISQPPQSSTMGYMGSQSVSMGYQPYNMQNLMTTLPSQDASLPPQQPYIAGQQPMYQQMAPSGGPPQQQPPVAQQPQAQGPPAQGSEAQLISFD

B1: KIF13B-FRB-Myc (pBa-FRB-3myc-KIF13B tail 442–1826) (domain or fragment)
chain: KVGDDKCFLVNLNADPALNELLVYYLKEHTLIGSANSQDIQLCGMGILPEHCIIDITSEGQVMLTPQKNTRTFVNGSSVSSPIQLHHGDRILWGNNHFFRLNLPKKKKKAEREDEDQDPSMKNENSSEQLDVDGDSSSEVSSEVNFNYEYAQMEVTMKALGSNDPMQSILNSLEQQHEEEKRSALERQRLMYEHELEQLRRRLSPEKQNCRSMDRFSFHSPSAQQRLRQWAEEREATLNNSLMRLREQIVKANLLVREANYIAEELDKRTEYKVTLQIPASSLDANRKRGSLLSEPAIQVRRKGKGKQIWSLEKLDNRLLDMRDLYQEWKECEEDNPVIRSYFKRADPFYDEQENHSLIGVANVFLESLFYDVKLQYAVPIINQKGEVAGRLHVEVMRLSGDVGERIAGGDEVAEVSFEKETQENKLVCMVKILQATGLPQHLSHFVFCKYSFWDQQEPVIVAPEVDTSSSSVSKEPHCMVVFDHCNEFSVNITEDFIEHLSEGALAIEVYGHKINDPRKNPALWDLGIIQAKTRSLRDRWSEVTRKLEFWVQILEQNENGEYCPVEVISAKDVPTGGIFQLRQGQSRRVQVEVKSVQESGTLPLMEECILSVGIGCVKVRPLRAPRTHETFHEEEEDMDSYQDRDLERLRRKWLNALTKRQEYLDQQLQKLVSKRDKTEDDADREAQLLEMRLTLTEERNAVMVPSAGSGIPGAPAEWTPVPGMETHIPVIFLDLNADDFSSQDNLDDPEAGGWDATLTGEEEEEFFELQIVKQHDGEVKAEASWDSAVHGCPQLSRGTPVDERLFLIVRVTVQLSHPADMQLVLRKRICVNVHGRQGFAQSLLKKMSHRSSIPGCGVTFEIVSNIPEDAQGVEEREALARMAANVENPASADSEAYIEKYLRSVLAVENLLTLDRLRQEVAVKEQLTGKGKLSRRSISSPNVNRLSGSRQDLIPSYSLGSNKGRWESQQDVSQTTVSRGIAPAPALSVSPQNNHSPDPGLSNLAASYLNPVKSFVPQMPKLLKSLFPVRDEKRGKRPSPLAHQPVPRIMVQSASPDIRVTRMEEAQPEMGPDVLVQTMGAPALKICDKPAKVPSPPPVIAVTAVTPAPEAQDGPPSPLSEASSGYFSHSVSTATLSDALGPGLDAAAPPGSMPTAPEAEPEAPISHPPPPTAVPAEEPPGPQQLVSPGRERPDLEAPAPGSPFRVRRVRASELRSFSRMLAGDPGCSPGAEGNAPAPGAGGQALASDSEEADEVPEWLREGEFVTVGAHKTGVVRYVGPADFQEGTWVGVELDLPSGKNDGSIGGKQYFRCNPGYGLLVRPSRVRRATGPVRRRSTGLRLGAPEARRSATLSGSATNLASLTAALAKADRSHKNPENRKSWAS
- percentage of transfected N2a cells exhibiting rapalog-induced Hrs recruitment to the centrosome/centriole (transport assay with BicD2-GFP-FKBP, kinesin tail-FRB-Myc and linker AP21967): 13%
